From paper PMC10899662, “TopBP1 utilises a bipartite GINS binding mode to support genome replication” (Nature Communications, 2024) come the findings set out here.

The subject of this assay is GINS lacking the Psf1-B domain (Psf1-ΔB). Kind of assay: Pulldown of TopBP1 versions by GINS with Psf1-ΔB compared to GINS-WT. The note with it: GINS-WT vs Psf1-ΔB. The assay is classed as binding. An excerpt: We next explored the relationship between the interactions of TopBP1 and DNA Polε with GINS. These proteins are part of the recently characterised metazoan pre-LC[37]–[40]. […] These pre-LC models are less informative on how DNA Polε affects the TopBP1-GINS interaction. The N-terminal region of PolE2 (PolE2-N; aa 1–75) binds GINS mainly at the Psf1-B domain, with minor interactions with residues in the A-domain that partly overlap with the TopBP1-BRCT4 interaction surface (Fig. 7a–c). To test if the Psf1-B domain is required for TopBP1 interaction, we did pulldowns with GINS lacking the Psf1-B domain (Psf1-ΔB). […] This could be due to a residual affinity of BRCT4 for Psf1-ΔB or due to the GINI-Psf1 interaction. We therefore analysed specifically the interaction of GINS with BRCT4 using the TopBP1-Gcc mutant. […] The moderate effect of the B domain deletion on BRCT4 binding is consistent with the partial overlap of the BRCT4 and PolE2 binding sites in Psf1. […] Together, in pre-LC, TopBP1 likely binds GINS through the GINI region, potentially also involving a residual affinity of BRCT4 for GINS despite the presence of DNA Polε. TopBP1 and GINS are likely further stabilised in pre-LCs via their interactions with DONSON[37],[38],[41]. […]

Where a chain is given by its changes, count along the chain named.

B1: TopBP1-BRCT0-5-WT: recombinant TopBP1 amino acids 1–766, strep-tagged (protein)
chain: MSRNDKEPFFVKFLKSSDNSKCFFKALESIKEFQSEEYLQIITEEEALKIKENDRSLYICDPFSGVVFDHLKKLGCRIVGPQVVIFCMHHQRCVPRAEHPVYNMVMSDVTISCTSLEKEKREEVHKYVQMMGGRVYRDLNVSVTHLIAGEVGSKKYLVAANLKKPILLPSWIKTLWEKSQEKKITRYTDINMEDFKCPIFLGCIICVTGLCGLDRKEVQQLTVKHGGQYMGQLKMNECTHLIVQEPKGQKYECAKRWNVHCVTTQWFFDSIEKGFCQDESIYKTEPRPEAKTMPNSSTPTSQINTIDSRTLSDVSNISNINASCVSESICNSLNSKLEPTLENLENLDVSAFQAPEDLLDGCRIYLCGFSGRKLDKLRRLINSGGGVRFNQLNEDVTHVIVGDYDDELKQFWNKSAHRPHVVGAKWLLECFSKGYMLSEEPYIHANYQPVEIPVSHKPESKAALLKKKNSSFSKKDFAPSEKHEQADEDLLSQYENGSSTVVEAKTSEARPFNDSTHAEPLNDSTHISLQEENQSSVSHCVPDVSTITEEGLFSQKSFLVLGFSNENESNIANIIKENAGKIMSLLSRTVADYAVVPLLGCEVEATVGEVVTNTWLVTCIDYQTLFDPKSNPLFTPVPVMTGMTPLEDCVISFSQCAGAEKESLTFLANLLGASVQEYFVRKSNAKKGMFASTHLILKERGGSKYEAAKKWNLPAVTIAWLLETARTGKRADESHFLIENSTKEERSLETEITNGINLNSDTAEHP
modifications: left off: Strep, C-terminal, kept
notes: recombinant TopBP1 amino acids 1–766, strep-tagged
On to B1, for which the “effect of Psf1-B domain deletion on TopBP1 binding, 100 mM NaAc” value is “the B domain had no influence”.

B2: TopBP1-B4mut: Val590, Thr606 and Val610 mutated to glutamate, arginine and glutamate (protein)
chain: B1 chain with V590E, T606R, V610E
modifications: left off: Strep, C-terminal, kept
For the molecule B2, the “effect of Psf1-B domain deletion on TopBP1 binding, 100 mM NaAc” value is recorded as “the B domain had no influence”.
